For assay [1], the target named is T1, human Factor IXa (human, UniProt P00740 47-191; P00740 227-461). Kind of assay: cell-based or functional assay.
Assay [2] addresses T1, human Factor IXa. Nature of the assay: cell-based or functional assay. The source holds these as a separate data set.
Assay [3] has as its target T1, human Factor IXa. Nature of the assay: cell-based or functional assay. This is another data set of the same source.
Assay [4] addresses T1, human Factor IXa. Nature of the assay: BLI (ForteBio Octet 384), biotinylated peptide on streptavidin probes, soluble hFIXa 0-2000 nM, steady state, 1:1 model. The method, then:
Briefly, a layer of molecules attached to the tip of an optical fiber creates an interference pattern upon incident white light. The combination of the optical fiber and biocompatible surface creates the physical conditions needed for BLI, allowing the detection of changes in mass accumulation on the tip of the probe. This is measured by alterations in the spectral shift (nm). These changes are recorded as a binding profile, a continuous, real-time monitoring of the association and dissociation of interacting molecules.
Control SA probes were loaded with 4M guanidinium chloride in the absence of biotinylated peptide for reference subtraction. After loading, probes were incubated in HBS-P for 300 sec to establish a new baseline. […] This is described as the dissociation phase. The equilibrium KD was derived from the non-linear regression analysis of the subtracted data (Reaction probe minus Reference probe) using a 1:1 binding model with ForteBio software (Version 7.0).

Square brackets hold non-standard residues; d marks the D form. Primed or numbered codes have the meaning given here. Side chains are listed from the residue outwards. Ends that are not written are not given here. * marks the point of attachment. Biotin = O=C1N[C@H]2[C@H](CS[C@H]2CCCCC(=O)*)N1; PEG2(3) = PEG2 spacer carrying biotin on Lys; NMeL = CN[C@@H](CC(C)C)C(=O)O; PEG2′ = PEG2 spacer unit

For the molecule [dK][NMeL]TCLASYCWLF-NH2 (cysteine pairing not given here) [compound 2], in assay [1], the “EC50 [µM], FXa generation assay” value is under 0.5 µM and the “EC50 [µM], FXa generation assay with hFIXa” value (“EC50 [µM] … with hFIXa” for short) is under 0.5 µM. The “EC50 (µM), FXa generation assay, without phospholipids” value in assay [2] came to 0.2 µM.

With LLQIPNLTCLGSYCWLDNGVYA, the “EC50 [µM], FXa generation assay” value in assay [1] is over 50 µM.

For GVEDRQLTCLASSCWVFSRHSV, the “EC50 [µM], FXa generation assay” value in assay [1] is over 1 µM.

As to AQLRRKLTCLASYCWLFGFFSP, the “EC50 [µM], FXa generation assay” value in assay [1] was over 1 µM.

As for APPGGKRMCLVSGCQLFPWSAS, the “EC50 [µM], FXa generation assay” value in assay [1] is over 50 µM.

As for GIQGSEVACRASFCRLFEQGHV, the “EC50 [µM], FXa generation assay” value in assay [1] is over 50 µM.

Consider DAGPNKLRCLASYCQLFGGGHA, for which the “EC50 [µM], FXa generation assay” value in assay [1] is over 50 µM.

With VAHYGKVTCLASYCQPLPSVGA, the “EC50 [µM], FXa generation assay” value in assay [1] was over 20 µM.

Regarding RYQRARLTCLASYCGLLFSMSA, the “EC50 [µM], FXa generation assay” value in assay [1] was over 15 µM.

Take AWPYHKPTCLASQCWQFLAQGS: in assay [1], the “EC50 [µM], FXa generation assay” value was over 50 µM.

GEGGGKLSCVAIQCGLFKGLGR: the “EC50 [µM], FXa generation assay” value in assay [1] is over 50 µM.

Turning to LLHAQKLSCLASYCWVFDAEWD, the “EC50 [µM], FXa generation assay” value in assay [1] was under 0.5 µM.

Consider KLTCLASYCWLF-NH2 (not fully specified (bridges); cysteine pairing not given here) [compound 1], for which the “EC50 [µM] … with hFIXa” value in assay [1] is under 0.5 µM. Also, in assay [3], the “EC50, FXa generation assay with human FIXa” value stood at 0.3 µM. Besides, the “EC50 (µM), FXa generation assay, without phospholipids” value in assay [2] came out at 0.4 µM.

Take QGQARKLACLASYCWLFPSSAG: in assay [1], the “EC50 [µM], FXa generation assay” value was over 50 µM.

On to MEGTRQPTCLASYCSPFQYVAP, for which the “EC50 [µM], FXa generation assay” value in assay [1] was over 20 µM.

As to GGALQQLTCPASYCWLFPMEHS, the “EC50 [µM], FXa generation assay” value in assay [1] was over 10 µM.

Consider HMQWGKLPCLASYCWLFWYGIG, for which the “EC50 [µM], FXa generation assay” value in assay [1] is over 1 µM.

For the molecule YARDSTLTCQARTCQLVDYLGP, the “EC50 [µM], FXa generation assay” value in assay [1] is over 50 µM.

On to RSFTSELTCLASSCRRFHHVPP, for which the “EC50 [µM], FXa generation assay” value in assay [1] is over 20 µM.

Take RPGGGKVTCQASYCWPFLARAG: the “EC50 [µM], FXa generation assay” value in assay [1] was over 20 µM.

As to GAQLDKETCLASYCQLFSTVRR, the “EC50 [µM], FXa generation assay” value in assay [1] is over 20 µM.

On to TLDSKNLQCLGSSCWLFSSGLS, for which, in assay [1], the “EC50 [µM], FXa generation assay” value was over 20 µM.

For the molecule LRQRLAKTCVASYCWLFSLVAS, the “EC50 [µM], FXa generation assay” value in assay [1] was over 10 µM.

As to QDGVEKLTCLASYCWRFGDHGA, the “EC50 [µM], FXa generation assay” value in assay [1] is over 50 µM.

Take SGGSGKLTCLASYCWPFGSQVR: in assay [1], the “EC50 [µM], FXa generation assay” value was over 50 µM.

For {Biotin-PEG2(3)}-LYTAWIKCQFARLPGCALSGRW (cysteine pairing not given here) [Biotin-PEG2-LYTAWIKCQFARLPGCALSGRW], in assay [1], the “EC50 [µM], FXa generation assay” value is over 10 µM.

Take VDKGHQLRCQAGYCWLLGYNRE: in assay [1], the “EC50 [µM], FXa generation assay” value is over 50 µM.

In the case of AVAINKVPCVASYCQLFESKIH, in assay [1], the “EC50 [µM], FXa generation assay” value was over 20 µM.

On to VQRSTQLTCLYGGCRLFGWNYH, for which the “EC50 [µM], FXa generation assay” value in assay [1] is over 20 µM.

With EGRRDKLTCLASYCWLVGHGQH, in assay [1], the “EC50 [µM], FXa generation assay” value was over 25 µM.

With HYARVQLRCLDGYCWLLTKSRM, in assay [1], the “EC50 [µM], FXa generation assay” value is over 10 µM.

For the molecule SYGRTKLTCLASSCWLFGQVHG, the “EC50 [µM], FXa generation assay” value in assay [1] was over 10 µM.

Consider RRAPGKLQCLASYCWLFWTAIA, for which the “EC50 [µM], FXa generation assay” value in assay [1] was under 0.5 µM.

In the case of SGRGGKLTCQASFCQLFGNGLS, the “EC50 [µM], FXa generation assay” value in assay [1] is under 0.5 µM.

Consider TLLYQNRTCLASYCWLFDKRSV, for which, in assay [1], the “EC50 [µM], FXa generation assay” value is over 50 µM.

As to SGFGMKLTCLASYCGLFQGEIG, the “EC50 [µM], FXa generation assay” value in assay [1] was under 0.5 µM.

With RFQTTQLTCLGSASCLFNLSVR, the “EC50 [µM], FXa generation assay” value in assay [1] is over 1 µM.

Turning to GFGSRKLTSLASYGWLIQDRLP, the “EC50 [µM], FXa generation assay” value in assay [1] was over 50 µM.

In the case of ERYRLDMTCMASQCWQFPPAAG, the “EC50 [µM], FXa generation assay” value in assay [1] is under 0.5 µM.

Turning to QDGDGKLTCRASYCRRFLVGVH, the “EC50 [µM], FXa generation assay” value in assay [1] was over 50 µM.

B1: compound 19 (peptide)
peptide: RRAPGKLTCLASYCWLFK([PEG2′-Biotin])TGIA-NH2
modifications: not fully specified (bridges); printed as RRAPGKLTCLASYCWLFK(PEG2-Biotin)TGIA; cysteine pairing not given here
notes: also called compound 4 biotinylated at K18
As for B1, the “EC50 [µM] … with hFIXa” value in assay [1] is under 0.5 µM. Also, in assay [4], the Kd worked out at 120 nM.

On to WHERQQLTCLASYCGLFVGQVA, for which, in assay [1], the “EC50 [µM], FXa generation assay” value was under 0.5 µM.

Regarding SISGQQLTCRASHCWLNLPWHS, in assay [1], the “EC50 [µM], FXa generation assay” value is over 20 µM.

Take RRAPGKLQCLASYCWLFWTGAA: the “EC50 [µM], FXa generation assay” value in assay [1] is over 1 µM.

As to VGEHRKISCVASNCQLLRSGLA, in assay [1], the “EC50 [µM], FXa generation assay” value was over 20 µM.

For MAGMLKLTCFASYCGLFPLVSS, the “EC50 [µM], FXa generation assay” value in assay [1] was under 0.5 µM.

The values above are taken from patent US20140303084A1 (Biogen, published 2014).
